{"source": "paper PMC11319651", "about": "“Distinct conformational states enable transglutaminase 2 to promote cancer cell survival versus cell death” (Communications Biology, 2024)", "key": {"Transglutaminase 2 (TG2)": {"target": "T1, Transglutaminase 2 (TG2) (Homo sapiens, UniProt P21980)", "T1 construct": "gene TGM2; N-terminal six-histidine tagged human TG2", "T1 sequence (P21980 1-687)": "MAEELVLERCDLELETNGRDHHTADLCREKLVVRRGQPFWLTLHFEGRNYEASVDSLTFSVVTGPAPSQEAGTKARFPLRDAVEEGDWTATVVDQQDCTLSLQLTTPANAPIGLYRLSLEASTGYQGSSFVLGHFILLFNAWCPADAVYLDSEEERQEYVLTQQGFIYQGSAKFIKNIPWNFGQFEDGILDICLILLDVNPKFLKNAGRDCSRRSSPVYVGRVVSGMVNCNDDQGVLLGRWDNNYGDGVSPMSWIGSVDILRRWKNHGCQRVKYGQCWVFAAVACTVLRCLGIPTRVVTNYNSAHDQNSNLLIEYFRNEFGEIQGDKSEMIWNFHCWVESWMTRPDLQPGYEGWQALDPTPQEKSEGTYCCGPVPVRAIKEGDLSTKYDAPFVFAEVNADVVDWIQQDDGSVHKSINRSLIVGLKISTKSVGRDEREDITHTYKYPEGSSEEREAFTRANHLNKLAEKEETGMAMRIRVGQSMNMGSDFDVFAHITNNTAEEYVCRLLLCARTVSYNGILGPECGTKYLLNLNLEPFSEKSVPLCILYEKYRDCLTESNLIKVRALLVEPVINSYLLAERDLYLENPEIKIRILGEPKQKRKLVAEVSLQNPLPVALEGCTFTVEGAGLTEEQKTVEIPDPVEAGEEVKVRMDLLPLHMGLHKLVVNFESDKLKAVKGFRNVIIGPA", "experiment": "biochemical", "parameters": "inhibition of TG2 protein crosslinking activity, gel-based read-out", "text": "(the LM-series, Fig. S6)."}, "[1]": {"target": "Transglutaminase 2 (TG2), wildtype, recombinant human (human) (UniProt P21980)", "experiment": "SAXS; static SAXS, 25 µM (2 mg/mL) TG2 with 2 mM Ca2+ for 5 min, TG2 Storage Buffer; DAMMIF envelopes (P1, P2), CRYSOL fit to the open state dimer; deconvolution into monomer and dimer"}, "[2]": {"target": "Transglutaminase 2 (TG2), wildtype, recombinant human (human) (UniProt P21980)", "experiment": "SAXS; time-resolved SAXS, Kenics chaotic advection mixer, TG2 1 mg/mL final, 2 mM Ca2+, 0-631 ms; deconvolution into closed state monomer and open state dimer"}, "[3]": {"target": "the molecule itself", "experiment": "SAXS; static SAXS, TG2 R580K with GTP at concentrations greater than 1 mM (up to 5 mM); CRYSOL fit to the open state dimer (from crystal packing of PDB 2Q3Z)"}}, "data": [{"molecule": "O=C1NC(=O)N(c2cccc(Cl)c2)C(=O)/C1=C/Nc1ccc(Cl)c(CN2C(=O)c3ccccc3C2=O)c1", "note": "[LM11]", "values": [{"measurement": "IC50", "setting": "Transglutaminase 2 (TG2)", "result": 10, "unit": "µM"}]}, {"molecule": "Transglutaminase 2 (TG2), wildtype, recombinant human (from UniProt P21980 1-687) (enzyme)", "values": [{"measurement": "percent dimer after five minutes with Ca2+", "setting": "[1]", "result": 100, "unit": "%"}, {"measurement": "stoichiometry N", "setting": "[1]", "result": 2}, {"measurement": "percent dimer at t = 0 ms", "setting": "[2]", "result": 61, "unit": "%"}]}, {"molecule": "TG2 R580K mutant (enzyme, human, human transglutaminase 2 (TGM2), UniProt P21980, with the substitution R580K; The methods describe expression and purification only for TG2 in general; also called TG R580K) MAEELVLERCDLELETNGRDHHTADLCREKLVVRRGQPFWLTLHFEGRNYEASVDSLTFSVVTGPAPSQEAGTKARFPLRDAVEEGDWTATVVDQQDCTLSLQLTTPANAPIGLYRLSLEASTGYQGSSFVLGHFILLFNAWCPADAVYLDSEEERQEYVLTQQGFIYQGSAKFIKNIPWNFGQFEDGILDICLILLDVNPKFLKNAGRDCSRRSSPVYVGRVVSGMVNCNDDQGVLLGRWDNNYGDGVSPMSWIGSVDILRRWKNHGCQRVKYGQCWVFAAVACTVLRCLGIPTRVVTNYNSAHDQNSNLLIEYFRNEFGEIQGDKSEMIWNFHCWVESWMTRPDLQPGYEGWQALDPTPQEKSEGTYCCGPVPVRAIKEGDLSTKYDAPFVFAEVNADVVDWIQQDDGSVHKSINRSLIVGLKISTKSVGRDEREDITHTYKYPEGSSEEREAFTRANHLNKLAEKEETGMAMRIRVGQSMNMGSDFDVFAHITNNTAEEYVCRLLLCARTVSYNGILGPECGTKYLLNLNLEPFSEKSVPLCILYEKYRDCLTESNLIKVRALLVEPVINSYLLAEKDLYLENPEIKIRILGEPKQKRKLVAEVSLQNPLPVALEGCTFTVEGAGLTEEQKTVEIPDPVEAGEEVKVRMDLLPLHMGLHKLVVNFESDKLKAVKGFRNVIIGPA", "values": [{"measurement": "stoichiometry N", "setting": "[3]", "result": 2}]}]}
